Results from patent publication US7572594B2, “Screening assays for agonists or antagonists or receptor activator of NF-κB” (Immunex Corporation, priority 2000, dated 2009).

How the values were obtained:
[1] = system: human TRAP promoter; assay: human TRAP promoter/luciferase reporter in 293/EBNA cells; format: cell-based; settings: 40 ng reporter
Source text: (§1) This example describes the activation of the TRAP promoter. A 2.6 kb DNA fragment containing the human TRAP promoter was obtained by digesting the plasmid pBL2HT2.2 with the restriction endonuclease ApaI. The cloning of the human TRAP gene 5′ region and the construction of pBL2HT2.2 are fully described in Reddy et al. (Bone 16:587-593 (1995)). A DNA containing the mouse TRAP promoter (SEQ ID NO:12) and a DNA containing the murine MMP-9 promoter (SEQ ID NO:11) also were used for these experiments. DNAs containing the promoters were fused to the luciferase reporter gene. These promoter/reporter constructs were transfected into human 293/EBNA cells along with various combinations of expression vectors that encoded full-length human RANK (SEQ ID NO:2) and human full-length RANK-L proteins (SEQ ID NO:6).
For the human TRAP promoter, the 1.9 kb […] fragment containing the promoter activity isolated from the region upstream of the human TRAP gene (Reddy et al., 1995) was fused to a luciferase reporter and transfected (40 ng) into 293/EBNA cells. The combination of human RANK (SEQ ID NO:2) and human RANK-L (SEQ ID NO:6) increased reporter expression approximately 1.5 fold.

[2] = system: mouse TRAP promoter (SEQ ID NO:12); assay: mouse TRAP promoter/luciferase reporter in 293/EBNA cells; format: cell-based; settings: 24 hours after transfection, 0.4 ng RANK vector, 20 ng RANK-L vector
Source text: as §1
For the mouse TRAP promoter (SEQ ID NO:12), 2×10^5 293/EBNA cells were transfected using DEAE/dextran with 40 ng of a plasmid encoding approximately 2 kb of the mouse TRAP promoter (SEQ ID NO:12) fused to a luciferase reporter, 20 ng of an expression vector encoding RANK-L (SEQ ID NO:6), and 0.4 ng of an expression vector encoding RANK (SEQ ID NO:2). Twenty four hours after transfection, luciferase activity in cell lysates was measured according to manufacturer's instructions (Promega) using a EG&G/Berthold luminometer. […]

[3] = system: mouse TRAP mRNA; assay: Quantitative RT-PCR of TRAP mRNA in RAW 264.7 cells; format: cell-based; settings: RANKL/LZ 200 ng/ml or TNFα 20 ng/ml, various times
[4] = system: mouse MMP-9 mRNA; assay: Quantitative RT-PCR of MMP-9 mRNA in RAW 264.7 cells; format: cell-based; settings: RANKL/LZ 200 ng/ml or TNFα 20 ng/ml, various times
Source text: MMP-9 mRNA is elevated greater than 350-fold by RANK-L, but is not increased by TNFα. This specificity is helpful in screening for inhibitors of RANK signal transduction.

[5] = system: MMP-9 (SEQ ID NO:11)/luciferase promoter; assay: MMP-9/luciferase reporter in RAW 264.7 cells; format: cell-based, murine; settings: 1 μg/ml for 18 hours
Description: Additionally, RAW 264.7 cells (6×10^6 cells) were transfected with 15 μg of MMP-9 (SEQ ID NO:11)/luciferase plasmid DNA using DEAE/dextran. Two hours after transfection, cells were divided into two equal amounts and further incubated for 24 hours. Addition of 1 μg/ml of a leucine zipper form of murine RANK-L for 18 hours was sufficient to induce the MMP-9 (SEQ ID NO:11)/luciferase promoter 10-15 fold.

B1: RANK (SEQ ID NO:2) and RANK-L (SEQ ID NO:6): co-transfection of expression vectors encoding full-length human RANK and human full-length RANK-L (protein, listed as Homo sapiens)
chain 1: MAPRARRRRPLFALLLLCALLARLQVALQIAPPCTSEKHYEHLGRCCNKCEPGKYMSSKCTTTSDSVCLPCGPDEYLDSWNEEDKCLLHKVCDTGKALVAVVAGNSTTPRRCACTAGYHWSQDCECCRRNTECAPGLGAQHPLQLNKDTVCKPCLAGYFSDAFSSTDKCRPWTNCTFLGKRVEHHGTEKSDAVCSSSLPARKPPNEPHVYLPGLIILLLFASVALVAAIIFGVCYRKKGKALTANLWHWINEACGRLSGDKESSGDSCVSTHTANFGQQGACEGVLLLTLEEKTFPEDMCYPDQGGVCQGTCVGGGPYAQGEDARMLSLVSKTEIEEDSFRQMPTEDEYMDRPSQPTDQLLFLTEPGSKSTPPFSEPLEVGENDSLSQCFTGTQSTVGSESCNCTEPLCRTDWTPMSSENYLQKEVDSGHCPHWAASPSPNWADVCTGCRNPPGEDCEPLVGSPKRGPLPQCAYGMGLPPEEEASRTEARDQPEDGADGRLPSSARAGAGSGSSPGGQSPASGNVTGNSNSTFISSGQVMNFKGDIIVVYVSQTSQEGAAAAAEPMGRPVQEETLARRDSFAGNGPRFPDPCGGPEGLREPEKASRPVQEQGGAKA
chain 2: MRRASRDYTKYLRGSEEMGGGPGAPHEGPLHAPPPPAPHQPPAASRSMFVALLGLGLGQVVCSVALFFYFRAQMDPNRISEDGTHCIYRILRLHENADFQDTTLESQDTKLIPDSCRRIKQAFQGAVQKELQHIVGSQHIRAEKAMVDGSWLDLAKRSKLEAQPFAHLTINATDIPSGSHKVSLSSWYHDRGWAKISNMTFSNGKLIVNQDGFYYLYANICFRHHETSGDLATEYLQLMVYVTKTSIKIPSSHTLMKGGSTKYWSGNSEFHFYSINVGGFFKLRSGEEISIEVSNPSLLDPDQDATYFGAFKVRDID
- increase of reporter expression (luciferase) [1]: approximately 1.5 fold
- increase of reporter expression (luciferase) [2]: approximately 4 fold

B2: leucine zipper form of murine RANK-L: soluble leucine zipper fusion of murine RANK-L (protein)
chain: YFRAQMDPNRISEDSTHCFYRILRLHENADLQDSTLESEDTLPDSCRRMKQAFQGAVQKELQHIVGPQRFSGAPAMMEGSWLDVAQRGKPEAQPFAHLTINAASIPSGSHKVTLSSWYHDRGWAKISNMTLSNGKLRVNQDGFYYLYANICFRHHETSGSVPTDYLQLMVYVVKTSIKIPSSHNLMKGGSTKNWSGNSEFHFYSINVGGFFKLRAGEEISIQVSNPSLLDPDQDATYFGAFKVQDID
modifications: left off: a dimerising Fc or GST
- TRAP mRNA elevation [3]: greater than 250 fold
- MMP-9 mRNA elevation [4]: greater than 350 fold
- induction of MMP-9/luciferase promoter [5]: 10-15 fold
